Laboratory results taken from ChEMBL document CHEMBL2074310, “ATP-dependent organic anion transport system in normal and TR- rat liver canalicular membranes” (Am J Physiol, 1992).

Substrate: O=C1OC(c2ccc(O)c(S(=O)(=O)O)c2)(c2ccc(O)c(S(=O)(=O)O)c2)c2c(Br)c(Br)c(Br)c(Br)c21
Experiment: TP_TRANSPORTER: uptake in bile canalicular membrane vesicles from Wistar rat
Assay type: functional, cell membranes, Bile canalicular membrane vesicle

B1: ATP-binding cassette sub-family C member 2 (Rattus norvegicus) (protein)
chain: MDKFCNSTFWDLSLLESPEADLPLCFEQTVLVWIPLGFLWLLAPWQLYSVYRSRTKRSSITKFYLAKQVFVVFLLILAAIDLSLALTEDTGQATVPPVRYTNPILYLCTWLLVLAVQHSRQWCVRKNSWFLSLFWILSVLCGVFQFQTLIRALLKDSKSNMAYSYLFFVSYGFQIVLLILTAFSGPSDSTQTPSVTASFLSSITFSWYDRTVLKGYKHPLTLEDVWDIDEGFKTRSVTSKFEAAMTKDLQKARQAFQRRLQKSQRKPEATLHGLNKKQSQSQDVLVLEEAKKKSEKTTKDYPKSWLIKSLFKTFHVVILKSFILKLIHDLLVFLNPQLLKLLIGFVKSSNSYVWFGYICAILMFAVTLIQSFCLQSYFQHCFVLGMCVRTTVMSSIYKKALTLSNLARKQYTIGETVNLMSVDSQKLMDATNYMQLVWSSVIQITLSIFFLWRELGPSILAGVGVMVLLIPVNGVLATKIRNIQVQNMKNKDKRLKIMNEILSGIKILKYFAWEPSFQEQVQGIRKKELKNLLRFGQLQSLLIFILQITPILVSVVTFSVYVLVDSANVLNAEKAFTSITLFNILRFPLSMLPMVTSSILQASVSVDRLERYLGGDDLDTSAIRRVSNFDKAVKFSEASFTWDPDLEATIQDVNLDIKPGQLVAVVGTVGSGKSSLVSAMLGEMENVHGHITIQGSTAYVPQQSWIQNGTIKDNILFGSEYNEKKYQQVLKACALLPDLEILPGGDMAEIGEKGINLSGGQKQRVSLARAAYQDADIYILDDPLSAVDAHVGKHIFNKVVGPNGLLAGKTRIFVTHGIHFLPQVDEIVVLGKGTILEKGSYRDLLDKKGVFARNWKTFMKHSGPEGEATVNNDSEAEDDDDGLIPTMEEIPEDAASLAMRRENSLRRTLSRSSRSSSRRGKSLKNSLKIKNVNVLKEKEKEVEGQKLIKKEFVETGKVKFSIYLKYLQAVGWWSILFIILFYGLNNVAFIGSNLWLSAWTSDSDNLNGTNNSSSHRDMRIGVFGALGLAQGICLLISTLWSIYACRNASKALHGQLLTNILRAPMRFFDTTPTGRIVNRFSGDISTVDDLLPQTLRSWMMCFFGIAGTLVMICMATPVFAIIIIPLSILYISVQVFYVATSRQLRRLDSVTKSPIYSHFSETVTGLPIIRAFEHQQRFLAWNEKQIDINQKCVFSWITSNRWLAIRLELVGNLVVFCSALLLVIYRKTLTGDVVGFVLSNALNITQTLNWLVRMTSEAETNIVAVERISEYINVENEAPWVTDKRPPADWPRHGEIQFNNYQVRYRPELDLVLKGITCNIKSGEKVGVVGRTGAGKSSLTNCLFRILESAGGQIIIDGIDVASIGLHDLRERLTIIPQDPILFSGSLRMNLDPFNKYSDEEVWRALELAHLRSFVSGLQLGLLSEVTEGGDNLSIGQRQLLCLGRAVLRKSKILVLDEATAAVDLETDSLIQTTIRKEFSQCTVITIAHRLHTIMDSDKIMVLDNGKIVEYGSPEELLSNRGSFYLMAKEAGIENVNHTEL
  Km: 31 µM
